This note sets out measurements from patent publication US20220347268A1 (MEDICENNA THERAPEUTICS, published 2022).

Assay [1] concerns the target T1, IL-13Rα1.
T1 construct: also called IL13Ra1
T1 chain: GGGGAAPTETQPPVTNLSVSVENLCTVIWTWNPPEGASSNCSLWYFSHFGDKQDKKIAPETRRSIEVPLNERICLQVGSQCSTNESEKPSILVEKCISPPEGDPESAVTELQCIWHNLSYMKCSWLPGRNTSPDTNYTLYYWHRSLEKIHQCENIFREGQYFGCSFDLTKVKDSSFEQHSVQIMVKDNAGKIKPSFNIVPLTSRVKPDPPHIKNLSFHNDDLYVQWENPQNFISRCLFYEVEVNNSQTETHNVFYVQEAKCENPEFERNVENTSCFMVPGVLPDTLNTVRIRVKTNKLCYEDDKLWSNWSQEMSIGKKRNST
Put plainly: SPR, kinetic (column K1). Background: Surface plasmon resonance follows binding to a sensor surface in real time, without labels.

In assay [2] the target is T1, IL-13Rα1. In words: SPR, kinetic (column K-1).
The target of assay [3] is T2, IL-13Rα2.
T2 construct: also called IL13Ra2; CD213A2
T2 chain: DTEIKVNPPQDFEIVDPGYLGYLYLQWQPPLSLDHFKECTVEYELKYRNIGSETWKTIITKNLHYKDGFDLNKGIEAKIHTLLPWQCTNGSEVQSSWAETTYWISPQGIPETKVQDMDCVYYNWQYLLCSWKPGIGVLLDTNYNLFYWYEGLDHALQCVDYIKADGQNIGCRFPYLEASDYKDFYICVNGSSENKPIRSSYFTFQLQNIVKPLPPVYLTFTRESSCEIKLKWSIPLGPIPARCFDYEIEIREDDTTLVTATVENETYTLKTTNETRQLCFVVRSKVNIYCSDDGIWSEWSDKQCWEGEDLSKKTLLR
Put plainly: SPR, kinetic (column K1).

Assay [4] deals with T2, IL-13Rα2. Put plainly: SPR, kinetic (column K-1).
Assay [5] deals with T1, IL-13Rα1. Put plainly: SPR, column KD (eq).

In general, kon refers to the rate constant with which the complex forms. Higher therefore signals faster complex formation. A word on the koff: it is the rate constant with which the complex falls apart. Lower therefore signals a long-lived complex. A word on the Kd: it is a measure of binding affinity in units of concentration. Low values mean a tighter complex, high ones a looser complex.

B1: A5 (ligand)
cytokine: PGPVPPSTALIELIEELINITQNQKAPLCNGSMVWSINLTAGMYCAALESLINVSGCSAIEKTQRMLSGFCPHKVSAGQFSSLHVKGSKIEVAQFVKDLLHHLRALMREGQFN
notes: grouped under 'IL-13Rα1 specific'; also called IL-13 variant A5
Consider B1, for which the kon in the assay with IL-13Rα1 [1] worked out at 2.8e+06 M⁻¹ s⁻¹. Besides, the koff with IL-13Rα1 [2] came to 0.0082 s⁻¹.

B2: D7 (ligand)
cytokine: PGPVPPSTAARELIEELFNITQNQKAPLCNGSMVWSINLTAGMYCAALESLINVSGCSAIEKTQRMLSGFCPHKVSAGQFSSLHVKKTRIEVAQFVKDLLIHLRKLFKEGQFN
notes: grouped under 'IL-13Rα2 specific'; also called IL-13 variant D7
The molecule B2 displayed a kon with IL-13Rα2 [3] of 1.77e+07 M⁻¹ s⁻¹. In addition, the koff in the assay with IL-13Rα2 [4] turned out to be 5.37e-05 s⁻¹.

B3: C4 (ligand)
cytokine: PGPVPPSTAVRELIEELVNITQNQKAPLCNGSMVWSINLTAGMYCAALESLINVSGCSAIEKTQRMLSGFCPHKVSAGQFSSLHVRDTRIEVAQFVKDLLNHLKELFTEGQFN
notes: grouped under 'IL-13Rα2 specific'; also called IL-13 variant C4
Molecule B3 registered a kon with IL-13Rα2 [3] of 1.94e+06 M⁻¹ s⁻¹. Also, the off-rate (koff) in the assay with IL-13Rα2 [4] stood at 0.000764 s⁻¹.

B4: A7 (ligand)
cytokine: PGPVPPSTAIRELIEELINITQNQKAPLCNGSMVWSINLTAGMYCAALESLINVSGCSAIEKTQRMLSGFCPHKVSAGQFSSLHVRGSKIEVAQFVKDLLHHLRALFREGQFN
notes: grouped under 'IL-13Rα1 specific'; also called IL-13 variant A7
B4 registered a kon with IL-13Rα1 [1] of 2.9e+06 M⁻¹ s⁻¹. For the same molecule, the koff with IL-13Rα1 [2] was 0.0034 s⁻¹.

B5: A8 (ligand)
cytokine: PGPVPPSTAIRELIEELINITQNQKAPLCNGSMVWSINLTAGMYCAALESLINVSGCSAIEKTQRMLSGFCPHKVSAGQFSSLHVRSSRIEVAQFVKDLLHHLRTLFREGQFN
notes: grouped under 'IL-13Rα1 specific'; also called IL-13 variant A8
In the assay with IL-13Rα1 [1], B5 had a kon of 1.64e+06 M⁻¹ s⁻¹. This molecule registered a koff with IL-13Rα1 [2] of 0.0033 s⁻¹.

B6: B6 (ligand)
cytokine: PGPVPPSTATRELIEELINITQNQKAPLCNGSMVWSINLTAGMYCAALESLINVSGCSAIEKTQRMLSGFCPHKVSAGQFSSLHVRGSKIEVAQFVKDLLYHLRTLFREGQFN
notes: grouped under 'IL-13Rα1 specific'; also called IL-13 variant B6
Consider B6, for which the kon with IL-13Rα1 [1] was found to be 1.4e+06 M⁻¹ s⁻¹. In addition, the koff with IL-13Rα1 [2] was determined as 0.0082 s⁻¹.

B7: B4 (ligand)
cytokine: PGPVPPSTALSELIEELINITQNQKAPLCNGSMVWSINLTAGMYCAALESLINVSGCSAIEKTQRMLSGFCPHKVSAGQFSSLHVKGSMIEVAQFVKDLLYHLRTLFREGQFN
notes: grouped under 'IL-13Rα1 specific'; also called IL-13 variant B4
For the molecule B7, in the assay with IL-13Rα1 [1], the kon was 1.36e+06 M⁻¹ s⁻¹. The same molecule registered a koff with IL-13Rα1 [2] of 0.024 s⁻¹.

B8: A6 (ligand)
cytokine: PGPVPPSTAIRELIEELLNITQNQKAPLCNGSMVWSINLTAGMYCAALESLINVSGCSAIEKTQRMLSGFCPHKVSAGQFSSLHVMKSKIEVAQFVKDLLHHLRALFREGQFN
notes: grouped under 'IL-13Rα1 specific'; also called IL-13 variant A6
In the assay with IL-13Rα1 [1], B8 had a kon of 1.77e+06 M⁻¹ s⁻¹. For the same molecule, the koff with IL-13Rα1 [2] worked out at 0.0033 s⁻¹.

B9: C11 (ligand)
cytokine: PGPVPPSTAHRELIEELVNITQNQKAPLCNGSMVWSINLTAGMYCAALESLINVSGCSAIEKTQRMLSGFCPHKVSAGQFSSLHVTGRKIEVAQFVKDLLLHLKKLFKEGQFN
notes: grouped under 'IL-13Rα2 specific'; also called IL-13 variant C11
For the molecule B9, binding in the assay with IL-13Rα1 [5] was characterised by a dissociation constant (Kd) of 1.6 µM. For the same molecule, in the assay with IL-13Rα2 [3], the kon was found to be 6.41e+06 M⁻¹ s⁻¹. Also, in the assay with IL-13Rα2 [4], the koff was found to be 9.18e-07 s⁻¹.

B10: A11 (ligand)
cytokine: PGPVPPSTAVRELIEELINITQNQKAPLCNGSMVWSINLTAGMYCAALESLINVSGCSAIEKTQRMLSGFCPHKVSAGQFSSLHVRSSKIEVAQFVKDLLFHLRTLFREGQFN
notes: Grouped under 'IL-13Rα1 specific'; also called IL-13 variant A11
In the assay with IL-13Rα1 [1], B10 registered a kon of 1.64e+07 M⁻¹ s⁻¹. Moreover, in the assay with IL-13Rα1 [2], the koff worked out at 0.0013 s⁻¹.

B11: B2 (ligand)
cytokine: PGPVPPSTALRELIEELINITQNQKAPLCNGSMVWSINLTAGMYCAALESLINVSGCSAIEKTQRMLSGFCPHKVSAGQFSSLHVTGSKIEVAQFVKDLLYHLRALFREGQFN
notes: grouped under 'IL-13Rα1 specific'; also called IL-13 variant B2
Consider B11, for which the kon with IL-13Rα1 [1] came out at 6.3e+06 M⁻¹ s⁻¹. In the assay with IL-13Rα1 [2], the koff came out at 0.0017 s⁻¹.
